Biological target: T1, polypeptide 10 (human)
T1 construct: The empty single-chain polypeptide as secreted by WEHI-231 cells, about 50 kD; also called MHC-derived polypeptide; single continuous amino acid chain 12
Test: inferred from peptide-dependent multimer staining of TCR-expressing Jurkat76 cells (flow cytometry)

T1 sequence (chain, as listed by the source limits assumed): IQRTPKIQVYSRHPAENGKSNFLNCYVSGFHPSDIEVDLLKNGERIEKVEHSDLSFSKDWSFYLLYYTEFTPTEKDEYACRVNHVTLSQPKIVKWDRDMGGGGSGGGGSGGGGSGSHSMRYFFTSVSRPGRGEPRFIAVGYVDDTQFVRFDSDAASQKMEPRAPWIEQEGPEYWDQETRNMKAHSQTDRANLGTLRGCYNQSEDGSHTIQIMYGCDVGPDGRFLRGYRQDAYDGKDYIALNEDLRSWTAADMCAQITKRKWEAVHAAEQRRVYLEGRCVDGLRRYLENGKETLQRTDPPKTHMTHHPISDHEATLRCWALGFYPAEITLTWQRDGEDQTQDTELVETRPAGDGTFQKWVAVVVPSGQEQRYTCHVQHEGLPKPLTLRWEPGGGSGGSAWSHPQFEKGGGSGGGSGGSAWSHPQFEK

LTDLGQNLLY [oligopeptide 26]
binding result: binds
